We go through one substance from patent US20080311125A1.

In this assay the target is HIV-1 gp120 (HIV-1). Put plainly: ELISA, coated gp120; binding relative to scytovirin.

As to “SD2 (residues 49-95 of scytovirin with a substitution of serine at position 55) (peptide)”, the percent binding in comparison to scytovirin is 50%.
